Measurements published in the nanobody polyreactivity screen of Harvey et al. (2022).

Test: yeast display, Sf9 membrane polyspecificity reagent, FACS + sequencing; frameworks hold sequencing errors
Outline: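 Nanobodies came from a synthetic yeast display library in Saccharomyces cerevisiae BJ5465, induced with galactose for 36–48 hours and stained for 1 hour at 4 °C with 10% biotinylated, detergent-solubilized Sf9 membrane reagent. Cells were enriched on streptavidin microbeads and then FACS-sorted, with low and high (top ~1%) gates set on anti-HA fluorescence for expression and streptavidin fluorescence for reagent binding. Each polyreactivity label reflects the gate a clone came from. Genes were amplified by colony PCR, sequenced by MiSeq 2 × 250 and filtered by CDR length.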

Sequence	polyreactivity (PSR sort gate)
QVQLVESGGGLVQAGGRLRLSCAASGRIFTYNAMGWYRQAPGKEREFVAAISSGGSTTYADSVKGRFTISRDNAKNTVYLQMNSLKPEDTAVYYCAAGGCRFAIIEYEYWGQGTQVTVSS	low polyreactivity
QVQLVESGGGLVQAGGRLRLSCAASGRIFVYYAMGWYRQAPGKERELVAAINAGGSTNYADSVKGRFTISRDNAKNTVYLQMNSLKPEDTAVYYCATDRYWWSGFDYWGQGTQVTVSS	high polyreactivity
QVQLVESGGGLVQAGGRLRLSCAASGRIFYHNAMGWYRQAPGKERELVAAITWSGVSTYYADSVKGRFTISRDNAKNTVYLQMNSLKPEDTAVYYCAKRGRWDWDFNYWGQGTQVTVSS	high polyreactivity
QVQLVESGGGLVQAGGRLRLSCAASGRTFANYAMGWYRQAPGKERELVAAITGSGSTNYADSVKGRFTISRDNAKNTVYLQMNSLKPEDTAVYYCAAAYKPYRCLYYPNSIDFGYWGQGTQVTVSS	high polyreactivity
QVQLVESGGGLVQAGGRLRLSCAASGRTFATNAMGWYRQAPGKERELVADISGGGSTYYADSVKGRFTISRDNAKNTVYLQMNSLKPEDTAVYYCAARDYHWFQWYDYWGQGTQVTVSS	low polyreactivity
QVQLVESGGGLVQAGGRLRLSCAASGRTFFQYAMGWYRQAPGKERELVAAIRCSDSTYYADSVKGRFTISRDNAKNTVYLQMNSLKPEDTAVYYCAVRAYREFLPIVYKWWWERDHWGQGTQVTVSS	low polyreactivity
QVQLVESGGGLVQAGGRLRLSCAASGRTFGSYAMGWYRQAPGKERELVAAISWSDGSTYYADSVKGRFTISRDNAKNTVYLQMNSLKPEDTAVYYCHWAKWYRYGGYRSRFDYWGQGTQVTVSS	low polyreactivity
QVQLVESGGGLVQAGGRLRLSCAASGRTFGTYAKGWSRQATGKERELVAAIRSNAGSTYYADSVKGRFTISRDNAKITVYLQMNSLKPEDTAVYYCAKSYRSSRRYNYWGQGTQVNVSS	high polyreactivity
QVQLVESGGGLVQAGGRLRLSCAASGRTFGYYTMGWYRQAPGKERELVATIRWSGGSTYADSVKGRFTISRDNANNTVYLQMNSLKPEDTAVYYCARRLFSWGAPFGYWGQGTQVTVSS	high polyreactivity
QVQLVESGGGLVQAGGRLRLSCAASGRTFRRYTMGWYRQAPGKERELVAAISRNGGSTYYADSVKGRFTISRDNAKNTVYLQMNSLKPEDTAVYYCAALRYAYIADYDYWGQGTQVTVSS	high polyreactivity
QVQLVESGGGLVQAGGRLRLSCAASGRTFTYNAMGWYRQAPGKERELFAAISNTGSTYYADSLKGRFTISRDNAKNTVYLQMNSLKPEDTAVYYCAADRAEFRQDDDPGESNYWGQGTQVTVSS	low polyreactivity
QVQLVESGGGLVQAGGRLRLSCAASGRTFYYNAMGWYRQAPGKERELVAAISSSGGRTYYADSVKGRFTISRDNAKNTVYLQMNSLKPEDTAVYYCAALTNARGFDYWGQGTQVTVSS	high polyreactivity
QVQLVESGGGLVQAGGRLRLSCAASGSIFFDYAMGWYRQAPGKERELVAAINSGGTTNYADSVKGRFTISRDNAKNTVYLQMKQPETGRYRGLLLQRLPGYIRWYRWYDYWGQGTQVTVSS	low polyreactivity
QVQLVESGGGLVQAGGRLRLSCAASGSIFFGNVIGWYRQAPGKEREWVAAINTDGRTYYADSVKGRFTISRDNAKNTVYLQMNSLKPEDTAVYYCAKAVWWSLPAQKSYLYYYWGQGTQVTVSS	high polyreactivity
QVQLVESGGGLVQAGGRLRLSCAASGSIFGGNDMGWYRQPPGKERELVAAITSSGGSTYYADSVKGRFTISRDNAKNTVYLQMYSLKPEDTAVYYCNADYYGPYRDYGYWGQGTQVTVSS	low polyreactivity
QVQLVESGGGLVQAGGRLRLSCAASGSIFINNTMGWYRQAPGKERELVAAISITGGSTYYADSVKGRFTISRDNAKNTVYLQMNSLKPEDTAVYYCAADPLQLYDYNYWGQCTQVTVSS	low polyreactivity

Sequence	polyreactivity (PSR sort gate)
QVQLVESGGGLVQAGGRLRLSCAASGSIFNSYDMGWYRQAPGKERELVAAINSGGSTYYADSVKGRFTISRDNAKNTDYFQMNSLKPEDTAVYYCAARVVIRYPYTKGYYYWGQGTQVTVSS	high polyreactivity
QVQLVESGGGLVQAGGRLRLSCAASGSIFRVYAMGWYRQAPGKERELVARISRGGRTNYADSVKGRFTISRDNAKNTVYLQMNSLKPEDTAVYYCAADVVSLESYSYQSLGYDYWGQGTQVTVSS	high polyreactivity
QVQLVESGGGLVQAGGRLRLSCAASGSIFSSYAMGWYRQAPGKERELVAAITNSGVSTYYADSVKGRFTISRDNAKYTVYLQMNSLKPEVTASITALKTVVRLPTVYTPLLNWYYYWGQGTQVTVSS	low polyreactivity
QVQLVESGGGLVQAGGRLRLSCAASGSILVFYARGWYRQAPGKERELVAAITSGASTNYADSVKGRFTISRDNAKNTVYLQMNSLKPEDTAVYYCAAGFQTRTPLNEFDYWGQGTQVTVSS	low polyreactivity
QVQLVESGGGLVQAGGRLRLSCAASGSISQTNAMGWYRKAPGKERELVAAISGSGGSTYADSVKGRFTISRDNAKNTVYLQMNSLKPEDTAVYYCARDRYYTREWYWYRHDHWGQGTQVTVSS	low polyreactivity
QVQLVESGGGLVQAGGRLRLSCAASGSNFTYYAMGWYRKAPGKEREFVAAISRRGGSTYYADSVKGRFTISRDNAKNTVYLQMNSLKPEDTAVYECNARYTGSSLYYWGQGTQLTVSS	high polyreactivity
QVQLVESGGGLVQAGGRLRLSCAASGSNFYENAMVWYRQAPGKERELVADITNSGGSTYYADSVKGRFTISRDNAKNTVYLQMNSLIPEDTAVFYFATDVGYFYTVVGGYDYWGQGTQVTVSS	low polyreactivity
QVQLVESGGGLVQAGGRLRLSCAASGSTFGDYAMGWYRQAPGKEREFVAAITWSGGSTNYADSVKGRFTISRDYAKNTVYLPMNSLKPEDTAVYYCAKPWYSSGFEYWGQGTQLTVSS	high polyreactivity
QVQLVESGGGLVQAGGRLRLSCAASGSTFGTNDMGWYRQAPGKEREFVASIDWSGDSTNYADSVKGRFTISRDNAKNTVYLQMNSLKPEDTADYYCAARVFPQIYYTSYDYWGQGTQVTVSS	high polyreactivity
QVQLVESGGGLVQAGGRLRLSCAASGSTFIGNAMGWYRQAPGKERELVAAISRTGGSTYADSVKGRFTISRDNAKNTVYLQMNSLKPEDTAVYYCAAKYYYLYYYWGQGTQVTVSS	high polyreactivity
QVQLVESGGGLVQAGGRLRLSCAASGSTFILNAMGWYRQAPGKERELVAAISRSGGNTYYADSVKRRFTISRDNAKNTVYLQMNSLKPADTAVYYCAATRRSHYYYWGQGTQVTVSS	high polyreactivity
QVQLVESGGGLVQAGGRLRLSCAASGSTFLNYAMGWYRQAPGKQRELVSSIDSSDGRTYYADSVKGRFTISRDNAKNTVYLQMNSLKPEDTEVYYCAKDSYAVELRPYSKLSSRADGYWGQGTQVTVSS	low polyreactivity
QVQLVESGGGLVQAGGRLRLSCAASGSTFPYYAMGWYRQAPGKERELVAVITRGGSTYYADSVKGRFTISRDNAQNTVYLQMNSLKPEDTAVYYCAARYTPGFCYWGQGTQVTVSS	high polyreactivity
QVQLVESGGGLVQAGGRLRLSCAASGSTFSWYVMGWYRQAPGKERELVAAITRGGGSTYYADSVKGRFTISRDNAKNTVYLQMNSLKPEDTAVYYCNADSNIPDYDYWGQGTQVTVSS	low polyreactivity
QVQLVESGGGLVQAGGRLRLSCAASGSTFSYYAMGWYRQAPGKERELVAAISSRGSSTYYADSVKGRFTISRDNAKNTVYLQMNSLKPQATAVYYCAAVRYSPTKFNYWGQGTQVTVSS	high polyreactivity
QVQLVESGGGLVQAGGRLRLSCAASGSTFVTNYMGRYRQAPGKERELVAAISSGTSTNYADSVKGRFTISRDNAKNTVYLQMNSLTREDTPVYYCAADSLKRYDYWGQGTQVTVSS	low polyreactivity
